± gives the standard deviation of the averaged measurements.
system: Saccharomyces cerevisiae; experiment: protein stability index of tFT-peptide fusion (C-terminal peptide) (PSI (0-1 scale)); higher = more stable (slower turnover); conditions: genetic background: wild type; temperature: 30 C
Procedure: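 Multiplexed protein stability (MPS) profiling in S. cerevisiae. Random 12-aa peptides (tFT-X12 library) are fused to the C-terminus of a sfGFP-mCherry tandem fluorescent timer, after mCherry and a GGGS linker. Cells are FACS-sorted into 8 mCherry/sfGFP bins and deep-sequenced. The protein stability index (PSI) is the read-weighted bin average, scaled from 0 (unstable) to 1 (stable). Only peptides with >10 reads are reported; cells were grown at 30 °C in SC-His with glucose.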
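Also: PSI is a weighted mean of sequencing reads over stability bins, variants kept only with over 10 reads, mCherry proximal and sfGFP distal, peptide attached via GGGS linker.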

Sequence | protein stability index
ELLTCSSSVMLL | 0.799 ± 0.026
ELPECEHLTSLT | 0.691 ± 0.068
ELRCEMEFWCER | 0.594 ± 0.0066
ELRSYAGMSGFN | 0.736 ± 0.014
ELSARVCLGSLF | 0.676 ± 0.015
ELVRIVREEYRC | 0.685 ± 0.1
EMGGLKACRGGG | 0.553 ± 0.026
EMGTTMATPCDH | 0.681 ± 0.0073
ENGRRTDKKVST | 0.687 ± 0.023
ENNWILSIKEKT | 0.747 ± 0.02
ENQGQKQKKKKR | 0.753 ± 0.046
ENQGQSYVTMRY | 0.725 ± 0.046
EPESPVTARAKP | 0.672 ± 0.031
EPLLVSPATPNL | 0.7311 ± 0.00091
EPMHTLKSIITH | 0.635 ± 0.073
EPNKGTNMKVND | 0.705 ± 0.048
EPNSPTYLSMLI | 0.637 ± 0.018
EQGAGFWVGGEV | 0.757 ± 0.099
EQSERINKKARK | 0.67 ± 0.063
EQSWEVWGRGQG | 0.744 ± 0.022
ERAGPGGARRVD | 0.696 ± 0.018
ERALYGFSSIFY | 0.667 ± 0.075
ERASGNWQVYKG | 0.639 ± 0.011
EREREKGEEEEG | 0.629 ± 0.0079
ERERREGEGKRQ | 0.721 ± 0.023

Sequence | protein stability index
ERGGLGLSRCVS | 0.663 ± 0.077
ERHTASGHLLFV | 0.729 ± 0.14
ERLKRNKKSTNG | 0.726 ± 0.018
ERMLHGTATSVW | 0.736 ± 0.046
ERRGRDRSQTLR | 0.715 ± 0.014
ERRKKKRGQETQ | 0.655 ± 0.12
ERRPTYFFHDHE | 0.693 ± 0.055
ERRPYVAGRRRF | 0.6722 ± 0.0049
ERSQTKIANDKK | 0.719 ± 0.042
ERSVSDSHERID | 0.678 ± 0.05
ESASSLNFTSLM | 0.731 ± 0.053
ESCIKGCSGVVS | 0.651 ± 0.06
ESCLVSKFDVIV | 0.656 ± 0.052
ESIEVGTGDWGG | 0.673 ± 0.053
ESKERKTRKLKK | 0.677 ± 0.048
ESLAKLPLRRPR | 0.63 ± 0.011
ESLFFPFAFSSV | 0.809 ± 0.13
ESQYAIFGHDIW | 0.709 ± 0.011
ESRVLYGLCLWC | 0.596 ± 0.028
ESSQLELRGGGR | 0.725 ± 0.0047
ESVVKNDVTYVQ | 0.691 ± 0.041
ETEGSSSLGTRI | 0.661 ± 0.021
ETHRANTRMERL | 0.726 ± 0.049
ETKEAKKKTIDS | 0.7217 ± 0.0065
ETLEKYGDPMRD | 0.624 ± 0.0088

Sequence | protein stability index
ETSRTYGNFPIT | 0.774 ± 0.11
EVCTFPGSIRSS | 0.521 ± 0.023
EVGHLILYKIGC | 0.648 ± 0.017
EVGLGAAGLSGP | 0.749 ± 0.031
EVGVRCRVGVWV | 0.567 ± 0.029
EVIRFMEKLPFR | 0.589 ± 0.025
EVYTWTGNMWNI | 0.673 ± 0.095
EWGAGGGVWGLG | 0.7684 ± 0.0069
EWMIHQFCRVPV | 0.62 ± 0.0097
EWVTRQFEGWEG | 0.7474 ± 0.0021
EYFLGPLVRLGR | 0.762 ± 0.11
EYRTAIYFQSLL | 0.701 ± 0.076
FAALACKSRLEF | 0.685 ± 0.03
FAFQAHWGCRDF | 0.703 ± 0.053
FAHSPPPHLSVR | 0.624 ± 0.014
FAISPCVSLAFF | 0.642 ± 0.05
FALSSLTFPLPT | 0.744 ± 0.094
FALWAGGTWFRT | 0.656 ± 0.013
FARLTSSQGGKD | 0.68 ± 0.025
FAVLGGGGGGGW | 0.711 ± 0.0097
FCAVRYLVEGRV | 0.533 ± 0.0064
FCIDSLNSFCFV | 0.643 ± 0.057
FCLSIFYRAFFD | 0.537 ± 0.024
FCLSVVELRGLM | 0.672 ± 0.049
FCRTSGSVGDHV | 0.721 ± 0.017

Sequence | protein stability index
FCYVEDLSVSVD | 0.611 ± 0.0068
FDNPFQATTATK | 0.823 ± 0.16
FDVYIKVRGGDI | 0.64 ± 0.024
FEDIPSMEYRSI | 0.702 ± 0.05
FEHFKCRRRPVI | 0.723 ± 0.044
FETGPGSCTACA | 0.68 ± 0.0099
FFFECPCWLGVF | 0.542 ± 0.019
FFGGAGVTEGLG | 0.683 ± 0.043
FFLLLCSSCFGV | 0.583 ± 0.021
FFNFVYYFTTPR | 0.635 ± 0.019
FFPFFLSFSPPF | 0.708 ± 0.023
FFPLPPSSPPSP | 0.7184 ± 0.0069
FFPPAHFAPQPA | 0.719 ± 0.015
FFPPLLSFPPTD | 0.7189 ± 0.0044
FFPRVLRLRYPS | 0.754 ± 0.085
FFPSFVLSFPCL | 0.641 ± 0.069
FFSPFSPALYTS | 0.756 ± 0.014
FFVLGRGVCLGA | 0.649 ± 0.066
FFYGLHSHCAIP | 0.717 ± 0.081
FGAGLTACPVSV | 0.517 ± 0.036
FGAHVGWHEASP | 0.705 ± 0.018
FGDPRRTDPLRL | 0.631 ± 0.04
FGFWCGWFAALP | 0.689 ± 0.0094
